Experimental data published in publication PMC8360832, “Butyryl/Caproyl-CoA:Acetate CoA-transferase: cloning, expression and characterization of the key enzyme involved in medium-chain fatty acid biosynthesis” (Bioscience Reports, 2021).

Tests used:
[1] = tested on: T1, CCCCCC(=O)SCCNC(=O)CCNC(=O)[C@H](O)C(C)(C)COP(=O)(O)OP(=O)(O)OC[C@H]1O[C@@H](n2cnc3c(N)ncnc32)[C@H](O)[C@@H]1OP(=O)(O)O; experiment: purified protein; assay type: biochemical, Caproicibacterium lactatifermentans; settings: 200 mM sodium acetate, 100 mM potassium phosphate pH 7, 25 °C
T1 construct: full-length, N-terminal His tag, pET28a, E. coli BL21 (DE3), Ni-NTA; gene 1344 bp, 49 kDa; predicted active site GGQLDFVLGAYL 342-353; homotetramer in model only

[2] = tested on: T2, CCCC(=O)SCCNC(=O)CCNC(=O)[C@H](O)C(C)(C)COP(=O)(O)OP(=O)(O)OC[C@H]1O[C@@H](n2cnc3c(N)ncnc32)[C@H](O)[C@@H]1OP(=O)(O)O; experiment: purified protein; assay type: biochemical, Caproicibacterium lactatifermentans; settings: 200 mM sodium acetate, 100 mM potassium phosphate pH 7, 25 °C
T2 construct: full-length, N-terminal His tag, pET28a, E. coli BL21 (DE3), Ni-NTA; gene 1344 bp, 49 kDa; predicted active site GGQLDFVLGAYL 342-353; homotetramer in model only

CPB6-CoAT (CCoAT) (Caproicibacterium lactatifermentans; A351P), sequence (chain, as listed by the source A351P): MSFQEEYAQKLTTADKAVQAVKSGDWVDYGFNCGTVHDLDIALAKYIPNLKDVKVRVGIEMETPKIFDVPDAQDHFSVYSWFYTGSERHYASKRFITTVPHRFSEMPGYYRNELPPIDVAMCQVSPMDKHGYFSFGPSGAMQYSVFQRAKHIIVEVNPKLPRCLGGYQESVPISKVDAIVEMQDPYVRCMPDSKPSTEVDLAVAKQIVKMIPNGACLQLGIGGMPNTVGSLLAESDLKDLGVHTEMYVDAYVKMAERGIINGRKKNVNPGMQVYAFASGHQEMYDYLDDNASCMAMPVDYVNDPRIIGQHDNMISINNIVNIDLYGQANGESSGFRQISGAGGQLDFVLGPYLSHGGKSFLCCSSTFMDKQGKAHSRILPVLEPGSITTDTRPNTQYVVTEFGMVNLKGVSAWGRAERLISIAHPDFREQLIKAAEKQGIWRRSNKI
CPB6-CoAT (CCoAT) (Caproicibacterium lactatifermentans), sequence (chain, as listed by the source): as the sequence (chain, as listed by the source A351P) above, with P351A counted along it
CPB6-CoAT (CCoAT) (Caproicibacterium lactatifermentans; D346H), sequence (chain, as listed by the source D346H): as the sequence (chain, as listed by the source A351P) above, with D346H, P351A counted along it

| Substance | Km [1] | kcat [1] | kcat/Km [1] | Km [2] | kcat [2] | kcat/Km [2] |
| --- | --- | --- | --- | --- | --- | --- |
| CPB6-CoAT (CCoAT) (Caproicibacterium lactatifermentans) | 359 ± 5.3 µM | 0.245 ± 0.015 s⁻¹ | 685 ± 3.33 M⁻¹ s⁻¹ | 537 ± 10 µM | 0.0968 ± 0.025 s⁻¹ | 180 ± 3.33 M⁻¹ s⁻¹ |
| CPB6-CoAT (CCoAT) (Caproicibacterium lactatifermentans; A351P) | 532 ± 2.5 µM | 0.113 ± 0.02 s⁻¹ | 213 ± 8.33 M⁻¹ s⁻¹ | 623 ± 4.4 µM | 0.0498 ± 0.015 s⁻¹ | 80 ± 3.33 M⁻¹ s⁻¹ |
| CPB6-CoAT (CCoAT) (Caproicibacterium lactatifermentans; D346H) | 748 ± 7.9 µM | 0.0707 ± 0.00333 s⁻¹ | 94.3 ± 1.67 M⁻¹ s⁻¹ | 747 ± 2.8 µM | 0.0217 ± 0.00333 s⁻¹ | 28.8 ± 1.67 M⁻¹ s⁻¹ |
